Results taken from US20230026259A1, “CA2 COMPOSITIONS AND METHODS FOR TUNABLE REGULATION” (Obsidian Therapeutics, Inc., priority 2019, published 2023).

System: T cells
Experiment: CD40L expression of CA2 regulated CD40L constructs in T cells by FACS (dose response, time course)
Type: cell-based
Details: for CD40L positive / MFI: Ligand N/A; for CD40L MFI / Percentage CD40L positive cells: constitutive CD40L
Excerpt: CD40L constructs regulated by Carbonic anhydrase DDs were generated and cloned into lentiviral vectors. Purified T cells were thawed and cultured with aCD3 aCD28 Dynabeads (in the ratio of 3 beads to 1 T cell).
The constructs were transduced in T cells the next day. […]

B1: OT-001661: constitutive CD40L control (protein)
chain: MHMIETYNQTSPRSAATGLPISMKIFMYLLTVFLITQMIGSALFAVYLHRRLDKIEDERNLHEDFVFMKTIQRCNTGERSLSLLNCEEIKSQFEGFVKDIMLNKEETKKENSFEMQKGDQNPQIAAHVISEASSKTTSVLQWAEKGYYTMSNNLVTLENGKQLTVKRQGLYYIYAQVTFCSNREASSQAPFIASLCLKSPGRFERILLRAANTHSSAKPCGQQSIHLGGVFELQPGASVFVNVTDPSQVSHGTGFTSFGLLKL
CD40L positive (Example 9, All Cells): 98%
MFI (Example 9, All Cells): 20451
CD40L positive (Example 9, CD4+): 98.7%
MFI (Example 9, CD4+): 24489
CD40L positive (Example 9, CD8+): 97.8%
MFI (Example 9, CD8+): 14352
CD40L MFI (time course 2 hours, CD4+): 4042
Percentage CD40L positive cells (time course 2 hours, CD4+): 72.8%
CD40L MFI (time course 2 hours, CD8+): 2212
Percentage CD40L positive cells (time course 2 hours, CD8+): 56.9%
CD40L MFI (time course 4 hours, CD4+): 4651
Percentage CD40L positive cells (time course 4 hours, CD4+): 77%
CD40L MFI (time course 4 hours, CD8+): 2994
Percentage CD40L positive cells (time course 4 hours, CD8+): 63.2%
CD40L MFI (time course 6 hours, CD4+): 3156
Percentage CD40L positive cells (time course 6 hours, CD4+): 67.2%
CD40L MFI (time course 6 hours, CD8+): 1773
Percentage CD40L positive cells (time course 6 hours, CD8+): 48.5%
CD40L MFI (time course 24 hours, CD4+): 9491
Percentage CD40L positive cells (time course 24 hours, CD4+): 93.3%
CD40L MFI (time course 24 hours, CD8+): 3563
Percentage CD40L positive cells (time course 24 hours, CD8+): 71.2%
CD40L MFI (time course 48 hours, CD4+): 5639
Percentage CD40L positive cells (time course 48 hours, CD4+): 88.5%
CD40L MFI (time course 48 hours, CD8+): 2313
Percentage CD40L positive cells (time course 48 hours, CD8+): 71.1%
